Experimental data from patent US20200277396A1.

Legend:
[1] = molecular target: human CD83, cell surface, on lymphoma cells (human) (UniProt Q01151); assay: flow cytometry, HB15a-FITC on L428 cells, gate placed right of the grey isotype control histogram
[2] = molecular target: human CD83, cell surface, on lymphoma cells (human) (UniProt Q01151); assay: flow cytometry, HB15a-FITC on HDLM2 cells, gate placed right of the grey isotype control histogram
[3] = molecular target: human CD83, cell surface, on lymphoma cells (human) (UniProt Q01151); assay: flow cytometry, HB15a-FITC on KM-H2 cells, gate placed right of the grey isotype control histogram
[4] = molecular target: human CD83, cell surface, on lymphoma cells (human) (UniProt Q01151); assay: flow cytometry, HB15e-FITC on L428 cells, gate placed right of the grey isotype control histogram
[5] = molecular target: human CD83, cell surface, on lymphoma cells (human) (UniProt Q01151); assay: flow cytometry, HB15e-FITC on HDLM2 cells, gate placed right of the grey isotype control histogram
[6] = molecular target: human CD83, cell surface, on lymphoma cells (human) (UniProt Q01151); assay: flow cytometry, HB15e-FITC on KM-H2 cells, gate placed right of the grey isotype control histogram

Sequence of UniProt Q01151 (Q01151 20-205): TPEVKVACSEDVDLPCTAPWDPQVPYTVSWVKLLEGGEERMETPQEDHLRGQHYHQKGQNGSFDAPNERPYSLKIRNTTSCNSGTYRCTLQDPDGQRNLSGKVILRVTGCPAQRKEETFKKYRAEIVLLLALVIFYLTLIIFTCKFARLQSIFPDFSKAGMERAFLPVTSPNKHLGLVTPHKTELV

Row | positive gate (percent of cells in the gate) [1] | positive gate (percent of cells in the gate) [2] | positive gate (percent of cells in the gate) [3] | positive gate (percent of cells in the gate) [4] | positive gate (percent of cells in the gate) [5] | positive gate (percent of cells in the gate) [6] | Substance
1 | 27.2 | 14.7 | 99.5 |  |  |  | HB15a, mouse anti-human CD83 monoclonal antibody (Beckman and Coulter)
2 |  |  |  | 60 | 32.5 | 99 | HB15e, mouse anti-human CD83 monoclonal antibody (BD Biosciences)
